Assay results taken from patent publication US20180280504A1, “GLYCAN-INTERACTING COMPOUNDS AND METHODS OF USE” (SIAMAB THERAPEUTICS, INC., priority 2014, published 2018).
Values joined by “and” are separate entries in the source; they are usually repeats but may differ in a detail not shown here. Equal entries are not always repeated.

Experiments:
[1] = Glycan array, GcSTn; type: binding; conditions: summary table
Procedure: (§1) Optimized glycan arrays comprise 71 chemically synthesized and well-defined glycans, most of which comprise Neu5Ac and Neu5Gc glycan pairs.
(§2) 300 ml of epoxy blocking buffer is prepared by combining 15 ml of 2 M Tris buffer (pH 8) with 0.9 ml of 16.6 M ethanolamine and 284.1 ml of distilled water. The solution was brought to a final pH of 9.0 with HCl. The solution is filtered using a […] nitrocellulose membrane. The epoxy buffer solution as well as 1 L of distilled water are pre-warmed to 50° C. Glass slides are arranged in a slide holder and quickly submerged in a staining tub with the warmed epoxy blocking buffer. Slides are incubated in the epoxy blocking buffer for 1 hour at 50° C. with periodic shaking to deactivate epoxy binding sites. Next, slides are rinsed and blocked with PBS with 1% OVA at 25° C. for one hour. Serum samples with polyclonal antibodies (1:1000) or purified monoclonal antibodies (1 ug/mL), are diluted in PBS with 1% OVA and added to the glycan array for one hour at 25° C. After extensive washing, binding of antibodies are detected by incubating glycan microarray slides with Cy3-conjugated anti-mouse IgG (Jackson Immunoresearch, West Grove, Pa.) for one hour. Slides are then washed extensively, dried and scanned with a Genepix 4000B scanner (Laser at 100%; gain at 350; 10 μm pixels). Raw data from scanned images are extracted using the Genepix software and analysis of raw data is carried out.

[2] = tested on: ST6GalNAc 1 transfected MDA-MB-231 cells (MDA-STn+); assay: Flow cytometry-based analysis of antibody binding, STn+ cells; set-up: species or system human
Procedure: Flow cytometry-based analysis is carried out to elucidate the curve-dose response for binding of antibodies to cell surface antigens. For these analyses, three cell lines are employed.
MDA-MB-231 cells are human breast cancer cells. They are grown in Earle's Minimum Essential Medium supplemented with 10% fetal calf serum (FCS), 100 μg/ml penicillin, 100 UI/ml streptomycin and 45 μg/ml gentamycin. MCF-7 cells are also human breast cancer cells and are grown under the same conditions as MDA-MB-231 cells. Stably transfected versions of MDA-MB-231 and MCF-7 cells (clone TAH3.P10 for MDA-MB-231 cells and clone A12.1 for MCF-7 cells) that over express GalNAc α2,6-sialyltransferase (ST6GalNAc 1,) are also cultured under the same conditions with the exception of an added 1 mg/ml of G418 to support cells expressing the transgene. ST6GalNAc 1 is an enzme capable of sialylating GalNAc. As a result of over expression, transfected cells express high levels of Neu5Ac-STn (see Julien, S. et al., Glycoconjugate journal. 2001. 18, 883-93; the contents of which are herein incorporated by reference in their entirety). E3 cells are murine breast cancer cells. They are cultured in Dulbecco's E4 medium with 10% FCS. Stably transfected versions of E3 cells expressing high levels of Neu5Gc-STn (E3-STn) are cultured with 600 μg/ml of G418 and 200 μg/ml hygromycin. During growth and maintenance of experimental cells, trypsin is not used for cell passaging.
For analysis, cells are harvested using StemPro Accutase (Life Technologies, Carlsbad, Calif.) and washed with PBS comprising 5% FBS before pelleting by light centrifugation. Cell numbers and viability are determined by trypan blue dye exclusion analysis and cell concentrations are adjusted to 5×10^6 cells/ml in PBS with 5% FBS. 50 μl of cells are added to each well of an assay plate. Cells are combined with 50 μl solutions of antibody being analyzed or control antibodies and incubated for 1 hour at 4° C. Cells are washed and pelleted twice with PBS with 5% FBS before being treated with 100 μl of PBS with 5% FBS comprising a 1:1,500 dilution of anti-mouse IgG (Southern Biotech, Birmingham, Ala.,) conjugated to allophycocyanin (APC). Cells are incubated for 30 min at 4° C. before washing and resuspending in 200 μl of propidium iodide (PI) diluted 1:1000 in PBS with 5% FBS. Treated cells are then subjects to flow cytometry analysis and 10,000 events are acquired for each sample.

[3] = Glycan array STn specificity and anti-STn antibody group assignment; type: binding; conditions: summary table
Procedure: as §2
Based on characterization data, anti-STn antibodies developed from Group 6 and Group 8 mice were categorized by anti-STn group number. In some cases, antibodies were assigned to Group 1. Group 1 antibodies according to the invention are antibodies capable of binding AcSTn and GcSTn. Such antibodies may have the ability to associate with a wider range of STn structures. The large oval in FIG. 1A indicates the portion of STn recognized by Group 1 antibodies. Antibodies were assigned to Group 2 based on their ability to bind STn as well as some related structures that include an O-linkage to serine or threonine. The large oval in FIG. 1B indicates the portion of STn recognized by Group 2 antibodies. In some cases, Group 2 antibodies may bind to glycans comprising a sialylated galactose residue. Some Group 2 antibodies preferably bind to structures with AcSTn over structures with GcSTn. Further anti-STn antibodies were assigned to Group 3. Group 3 antibodies are antibodies capable of binding STn, but may also bind a broader set of related structures. […] The large oval in FIG. 1C indicates the portion of STn recognized by Group 3 antibodies. Finally, some anti-STn antibodies were assigned to Group 4. Group 4 antibodies are capable of binding to both AcSTn and GcSTn as well as the un-sialylated Tn antigen, and therefore have broader specificity. The large oval in FIG. 1D indicates the portion of STn recognized by Group 4 antibodies. […] Also listed in the Table is the antibody Isotype for each antibody as determined by the IsoStrip mouse monoclonal antibody isotyping kit (Roche Diagnostics GmbH, Manheim, Germany).

[4] = Glycan array, AcSTn; type: binding; conditions: summary table
Procedure: as §1, §2

B1: S3F: 3F1 variable domains combined with IgG2a constant domains; heavy chain SEQ ID NO: 63, light chain SEQ ID NO: 64 (antibody)
heavy: QVQLQQSDAELVKPGASVKISCKASGYTFTDHAIHWVKQKPEQGLDWIGYISPGNGDIKYNEKFKDKVTLTADKSSSTACMHLNSLTSEDSAVYFCKRSLLALDYWGQGTTLTVSSAKTTAPSVYPLAPVCGDTTGSSVTLGCLVKGYFPEPVTLTWNSGSLSSGVHTFPAVLQSDLYTLSSSVTVTSSTWPSQSITCNVAHPASSTKVDKKIEPRGPTIKPCPPCKCPAPNLLGGPSVFIFPPKIKDVLMISLSPIVTCVVVDVSEDDPDVQISWFVNNVEVHTAQTQTHREDYNSTLRVVSALPIQHQDWMSGKEFKCKVNNKDLPAPIERTISKPKGSVRAPQVYVLPPPEEEMTKKQVTLTCMVTDFMPEDIYVEWTNNGKTELNYKNTEPVLDSDGSYFMYSKLRVEKKNWVERNSYSCSVVHEGLHNHHTTKSFSRTPGK
light: DIVMTQSHKFMSTSVGDRVSITCKASQDVGTNIAWYQQKPGRSPKVLIYSASTRHTGVPDRFTGSGSGTDFTLTISNVQSEDLTDYFCQQYSSFPLTFGVGTKLELKRADAAPTVSIFPPSSEQLTSGGASVVCFLNNFYPKDINVKWKIDGSERQNGVLNSWTDQDSKDSTYSMSSTLTLTKDEYERHNSYTCEATHKTSTSPIVKSFNRNEC
- Glycan Array GcSTn [1]: 31%
- EC50, flow cytometry binding to cell-associated STn ([2]; ST6GalNAc 1 transfected MDA-MB-231 cells, APC anti-mouse IgG): 2.051 nM and 2.13 nM and 1.94 nM
- EC50 ([2]; summary table, unit not printed (same values in nM), read-out: Flow cytometry (EC50) MDA-STn+): 1.06 nM
- Glycan Array STn Specificity [3]: 94%
- Glycan Array AcSTn [4]: 63%
